# Source: the DeepSol protein solubility set
# Experiment: soluble on expression in E. coli; label from the status in PepcDB or PDB records
row,Sequence,soluble on expression in E. coli
1,MSLSGFNYEKNQPHQMRAVSAVLGVFDGATPKYRTADENPELLFAAKQYANNILKVQSQNGIDGRFPDRSDDQNILDISMETGTGKTYTYTQTMFELHRWLGVFKFIVVVPTLSIKAGTQQFLQSKALAEHFEQDFGGDYEGVRLKTYVVESAKKNKGKKSNAPITIEQFVKAENKKEIHVLLINAGMVNSSSMNDTGDKALKDLFDNPVDALAAVRPFMIVDEPHKFPTRDSAKTWGNIKRLKPQYILRYGATFNDEYYNLLYRLTAVDAFNDGLVKGVRVFQEEMQGGMDAAVKLVSSDGKEAKFELNEKDKKQTFKLAKGEDLAQIHPAISDLKIDKMNKTVVVLSNGLELKTGAVINPYSYSQTVQDAMMQRAVAEHFKLERALLAERAPQPKIKPLTLFFIDDIAGYRSGNELSGSLKDKFESWIRAEAARRLKTESDPFYRDYLQKTLDDVSACHGGYFSKDNTDSDDRIEQEINEILHDKEKLLSLDNPRRFIFSKWTLREGWDNPNVFQICKLRSSGSTTSKLQEVGRGLRLPVNELMARVRDVPYKLNYFVDSSEKDFVKQLVGEINDNSFQEEISKKFTEELKQKILQKYPDIKPLVLVNQLFLDGIIDDNENFAEDGYDKLKAAYPEAFPKGLDKGKVSNAKDEGKDTIIMREGKYEELKALWELIHHKAVLQYKIKDEAEFADLFTAYLHENAAKFPQAGIRTAVNEAYINNGLMLSRRIDSFEDEDFIRFNTMTYREFLEKLAQTAKIRMQTLHQAFYCIRNELNIGDFLNMQTIAQIKNGFNRFLLHHSFHKFELDYRLVGSKIHPTKFTNKDGKPRAVKKADLGRFEDTEHRPAAGYLFGEIFYDSDIEHENVANNQIEGVIVFTKIPRNSIKIPVAGGGTYSPDFAYIVKTKSGEILNFVIEAKGTDGAEDLRKSEERKIKHAEKLFAEISKEIKVVFKTQFDGERIAELIGQNMPAGGHSENGREGHHHHHH,not soluble
2,MSLSGIFNWSLDVFADIYNTLKFESNIDLDTIDFTSIKNDLANVLITPVPLDQSRSKLGDASKPVALPSGDEVKLNQASIEITGVLSNELDLDELNTAELLYNASDLSYKKGTSIGDSARLAYYLRAHYILNIVGYLVSHKRLDIITNNNQVLFDNILKSFSKIYTLSGKLNDMIDKQKVTGDINNLAFINCINYSRSQLFNAHELLGQVVFGLADNYYESYGTLNNYKSLVEFILKNISDEDVFVIHFLPSTLQLFKKLLQLGEESLVDQFYKTITSSILKDYEANNFSKSEDIDLSKSKLSGFEIVTSFIFLTEFIPWCKQLSSRTAKYDFKDDILKYMEFLISYGVMERLLSYCSETANAKTQQVYDWSNMYDFRALLQKNFPRLTPAKFHYPGNQELLNAVRPGYENVSKLIDISFLTLDPSLNETLVSPFFQSFFSVFISNAAVVMTSLRDSEEDFVLSSLNESDEGHHHHHH,soluble
3,MSLSGKDLGRAIEQAINKKIASGSVKSKAEVARHFKVQPPSIYDWIKKGSISKDKLPELWRFFSDVVGPEHWGLNEYPIPTPTNSDTKSELLDINNLYQAASDEIRAIVAFLLSGNATEPDWVDHDVRAYIAAMEMKVGKYLKALESERKSQNITKTGTEGHHHHHH,soluble
4,MSLSGKPITDQQIRLYVNERKQGQTQLAASAKSGLSERSGRRIDSGELNTEPTPKRQWRTRKDPLAEVWSSVLVPMLEANPELLPLTLFEYLHDNYPNQYDNTVLRTLQRRVKAWKVKHGPAKEVMFRQTKVPGRLGLSDFTLLKGVTITILGQVFCHLLYHYRLAFSGWTYAKVICGGESYTALSTGLQNALWRSGGAPLEHRTDSLSAAFNNLAEKEQMTVRYDALCHHYQLKGSRNNPGKSHENGTIEAAHGHLKRRMTQALLLRGDTDFTSLEAYQAFVDGIVTKINQQCRTRFEQERPLLQTLPKRRTHDYAEHSVLISSSSSFDLKRVTYTVPSRFIGERLYVQLYDERLDLFSGHEQIMSLPRVYATTTQRGRSVDYRHVIDSLVKKPGAFRYSQLRDDLLPTPDYHRIWQYVDGTLNPHDACRYIVRLLHLAATAQCQDSLGRYVLKSIEGGELPSNLQCNKRFSTDTAVIPLITAKQHLLADYDQLLCVEVQHGEGHHHHHH,not soluble
5,MSLSILFKNAALLDPLQADLMDAHHVLVEDNLIKEVSDRPLQVTADRTIDLRGKTLMPGLIDLHVHAVAVELNLAQQVHMPNVLVTLRSTLLLRGMLRRGFTTVRDAGGAGHALKQAIETGLTDGPRLFVSGRALSQTGGHGDMRARSDYLASDAPCPCCVRVGALARVADGVDGVRRAAREELQMGADQIKIMASGGVASPTDPVGAFGYSEDEIRAIVEEARGRQTYVLAHAYTAAAIARAVRCGVRTIEHGNLVDEPTARLMAEKGAYVVPTLVTYEALANEGAQYGLPPESVAKIADVRDAGLRSLAIYRDAGVKMGFGSDLLGPSQRLQSDEFRIRAEILGPRAVIASATVIGAEVLGMEGKLGRIAPEALADLLVVDGNPLRDVACLLGQGEHIPLVLKAGKVQFDRLNAEGHHHHHH,not soluble
